Results on 19 molecules are retold here after patent US20220096649A1.

Test [1] deals with SIRP-α mouse NOD (mouse (NOD)) (UniProt P97797). Kind of test: SPR, antibody on GLC chip, SIRP as analyte. Background: Surface plasmon resonance follows binding to a sensor surface in real time, without labels.
Test [2] addresses SIRP-α mouse BALBc (mouse (BALBc)) (UniProt P97797). Description: SPR, antibody on GLC chip, SIRP as analyte.
Test [3] has as its target SIRP-α human v1 (human) (UniProt P78324). Description: SPR, antibody on GLC chip, SIRP as analyte.
For test [4], the target named is SIRP-α mouse NOD (mouse (NOD)) (UniProt P97797). Kind of test: SPR, antibody on GLC chip, SIRP as analyte; Mouse NOD SIRP-α allele.
Test [5] addresses SIRP-α mouse BALBc (mouse (BALBc)) (UniProt P97797). Kind of test: SPR, antibody on GLC chip, SIRP as analyte; Mouse BALBc SIRP-α allele.

SIRP-α human v1 (human), sequence (P78324 31-149): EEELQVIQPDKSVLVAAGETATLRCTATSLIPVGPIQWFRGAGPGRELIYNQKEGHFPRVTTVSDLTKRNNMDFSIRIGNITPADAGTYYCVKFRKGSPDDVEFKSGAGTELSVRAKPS

B1: Anti-SIRP-α antibody 136, light chain Mut_Q38E, heavy chain Mut (antibody, V domains shown)
VH: EVQLVESGGGVVQPGRSLRLSCAASGFTFSSYDVNWVRQAPGKGLEWVSLISGSGEIIYYADSVKGRFTISRDNSKNTLYLQMNSLRAEDTAVYYCAKENNRYRFFDDWGQGTLVTVSS
VL: EIVLTQSPGTLSLSPGERATLSCRASQSVYTYLAWYQEKPGQAPRLLIYGASSRATGIPDRFSGSGSGTEFTLTISSLQSEDFAVYYCQQYYDRPPLTFGGGTKVEIK
In the case of B1, the figures for the Kd in test [1], in test [2] and in test [3] were 6 nM, 3 nM and 6.2 nM, respectively.

B2: Anti-SIRP-α antibody 136, light chain Mut_I2T, heavy chain Mut (antibody, V domains shown)
VH: EVQLVESGGGVVQPGRSLRLSCAASGFTFSSYDVNWVRQAPGKGLEWVSLISGSGEIIYYADSVKGRFTISRDNSKNTLYLQMNSLRAEDTAVYYCAKENNRYRFFDDWGQGTLVTVSS
VL: ETVLTQSPGTLSLSPGERATLSCRASQSVYTYLAWYQQKPGQAPRLLIYGASSRATGIPDRFSGSGSGTEFTLTISSLQSEDFAVYYCQQYYDRPPLTFGGGTKVEIK
Turning to B2, the Kd in test [1] came to 0.68 nM; in test [2], 0.42 nM; in test [3] it was 0.72 nM.

B3: Anti-SIRP-α antibody 136, light chain wt, heavy chain Mut (antibody, V domains shown)
VH: EVQLVESGGGVVQPGRSLRLSCAASGFTFSSYDVNWVRQAPGKGLEWVSLISGSGEIIYYADSVKGRFTISRDNSKNTLYLQMNSLRAEDTAVYYCAKENNRYRFFDDWGQGTLVTVSS
VL: ETVLTQSPGTLTLSPGERATLTCRASQSVYTYLAWYQEKPGQAPRLLIYGASSRATGIPDRFSGSGSGTEFTLTISSLQSEDFAVYYCQQYYDRPPLTFGGGTKVEIK
For the molecule B3, the Kd is 0.68 nM in test [1], 0.42 nM in test [2] and 0.56 nM in test [3].

B4: Anti-SIRP-α antibody 136, light chain Mut_S22T, heavy chain Mut (antibody, V domains shown)
VH: EVQLVESGGGVVQPGRSLRLSCAASGFTFSSYDVNWVRQAPGKGLEWVSLISGSGEIIYYADSVKGRFTISRDNSKNTLYLQMNSLRAEDTAVYYCAKENNRYRFFDDWGQGTLVTVSS
VL: EIVLTQSPGTLSLSPGERATLTCRASQSVYTYLAWYQQKPGQAPRLLIYGASSRATGIPDRFSGSGSGTEFTLTISSLQSEDFAVYYCQQYYDRPPLTFGGGTKVEIK
For B4, the Kd in test [1] amounted to 2.4 nM; in test [2] it was 1.6 nM; in test [3] it was 5 nM.

B5: Anti-SIRP-α antibody 136, light chain Mut_S12T, heavy chain Mut (antibody, V domains shown)
VH: EVQLVESGGGVVQPGRSLRLSCAASGFTFSSYDVNWVRQAPGKGLEWVSLISGSGEIIYYADSVKGRFTISRDNSKNTLYLQMNSLRAEDTAVYYCAKENNRYRFFDDWGQGTLVTVSS
VL: EIVLTQSPGTLTLSPGERATLSCRASQSVYTYLAWYQQKPGQAPRLLIYGASSRATGIPDRFSGSGSGTEFTLTISSLQSEDFAVYYCQQYYDRPPLTFGGGTKVEIK
For B5, the Kd in test [1] was found to be 2.9 nM; in test [2] it was 2.1 nM; in test [3], 4.9 nM.

B6: Anti-SIRP-α antibody 136, light chain Mut_I2T, heavy chain Mut_V34M (antibody, V domains shown)
VH: EVQLVESGGGVVQPGRSLRLSCAASGFTFSSYDMNWVRQAPGKGLEWVSLISGSGEIIYYADSVKGRFTISRDNSKNTLYLQMNSLRAEDTAVYYCAKENNRYRFFDDWGQGTLVTVSS
VL: ETVLTQSPGTLSLSPGERATLSCRASQSVYTYLAWYQQKPGQAPRLLIYGASSRATGIPDRFSGSGSGTEFTLTISSLQSEDFAVYYCQQYYDRPPLTFGGGTKVEIK
As for B6, the dissociation constant Kd in test [1] was 0.6 nM; in test [2], 0.36 nM; in test [3] it was 0.55 nM.

B7: Anti-SIRP-α antibody 136, light chain Mut, heavy chain Mut (antibody, V domains shown)
VH: EVQLVESGGGVVQPGRSLRLSCAASGFTFSSYDVNWVRQAPGKGLEWVSLISGSGEIIYYADSVKGRFTISRDNSKNTLYLQMNSLRAEDTAVYYCAKENNRYRFFDDWGQGTLVTVSS
VL: EIVLTQSPGTLSLSPGERATLSCRASQSVYTYLAWYQQKPGQAPRLLIYGASSRATGIPDRFSGSGSGTEFTLTISSLQSEDFAVYYCQQYYDRPPLTFGGGTKVEIK
B7: the figures for the Kd in test [1], in test [2] and in test [3] were 5.2 nM, 3.1 nM and 7.3 nM, respectively.

B8: Anti-SIRP-α antibody 119, light chain wt, heavy chain wt (antibody, V domains shown)
VH: EVQLLESGGGVVQPGGSLRLSCAASGFSFSNFAMTWVRQAPGEGLEWVSTIGSGDTYYADSVKGRFTISRDNSKNTLYLQMNSLRAEDTAVYYCAKDSTVSWSGDFFDYWGLGTLVTVSS
VL: EIVLTQSPATLSVSPGERATFSCRASQNVKNDLAWYQQRPGQAPRLLIYAARIRETGIPERFSGSGSGTEFTLTITSLQSEDFAVYYCQQYYDWPPFTFGGGTKVEIK
Molecule B8 yielded a Kd in test [3] of 0.18 nM.

B9: Anti-SIRP-α antibody 119, light chain Mut, heavy chain wt (antibody, V domains shown)
VH: EVQLLESGGGVVQPGGSLRLSCAASGFSFSNFAMTWVRQAPGEGLEWVSTIGSGDTYYADSVKGRFTISRDNSKNTLYLQMNSLRAEDTAVYYCAKDSTVSWSGDFFDYWGLGTLVTVSS
VL: EIVLTQSPATLSVSPGERATLSCRASQNVKNDLAWYQQKPGQAPRLLIYAARIRETGIPARFSGSGSGTEFTLTISSLQSEDFAVYYCQQYYDWPPFTFGGGTKVEIK
The molecule B9 gave a Kd in test [3] of 0.21 nM.

B10: Anti-SIRP-α antibody 119, light chain Mut, heavy chain Mut_V34M (antibody, V domains shown)
VH: EVQLLESGGGVVQPGGSLRLSCAASGFSFSNFAMTWVRQAPGKGLEWVSTIGSGDTYYADSVKGRFTISRDNSKNTLYLQMNSLRAEDTAVYYCAKDSTVSWSGDFFDYWGQGTLVTVSS
VL: EIVLTQSPATLSVSPGERATLSCRASQNVKNDLAWYQQKPGQAPRLLIYAARIRETGIPARFSGSGSGTEFTLTISSLQSEDFAVYYCQQYYDWPPFTFGGGTKVEIK
Molecule B10 registered a Kd in test [3] of 0.22 nM.

B11: Anti-SIRP-α antibody 135, light chain wt, heavy chain wt (antibody, V domains shown)
VH: DVQLVESGGGVVRPGESLRLSCAASGFSFSIYAMSWVRQAPGEGLEWVSTIGADDTYYADSVKGRFTISRDNSKNTLYLQMNSLRAEDTAVYYCAKDSTVGWSGDFFDYWGLGTLVTVSS
VL: EIVLTQSPATLSVSPGERVTFSCRASQNVRSDIAWYQQKPGQAPRLLIYAASSRDTGIPDRFSGSGSGTDFTLTISSLQSEDFGVYYCQQYYDWPPFTFGGGTKVEIK
In test [3], B11 came in with a Kd of 0.15 nM.

B12: Anti-SIRP-α antibody 135, light chain Mut, heavy chain Mut (antibody, V domains shown)
VH: EVQLVESGGGVVQPGGSLRLSCAASGFSFSIYAVSWVRQAPGKGLEWVSTIGADDTYYADSVKGRFTISRDNSKNTLYLQMNSLRAEDTAVYYCAKDSTVGWSGDFFDYWGQGTLVTVSS
VL: EIVLTQSPATLSVSPGERVTLSCRASQNVRSDIAWYQQKPGQAPRLLIYAASSRDTGIPARFSGSGSGTDFTLTISSLQSEDFGVYYCQQYYDWPPFTFGGGTKVEIK
For the molecule B12, the Kd in test [3] was determined as 0.19 nM.

B13: Anti-SIRP-α antibody 119, light chain Mut, heavy chain Mut (antibody, V domains shown)
VH: EVQLLESGGGVVQPGGSLRLSCAASGFSFSNFAVTWVRQAPGKGLEWVSTIGSGDTYYADSVKGRFTISRDNSKNTLYLQMNSLRAEDTAVYYCAKDSTVSWSGDFFDYWGQGTLVTVSS
VL: EIVLTQSPATLSVSPGERATLSCRASQNVKNDLAWYQQKPGQAPRLLIYAARIRETGIPARFSGSGSGTEFTLTISSLQSEDFAVYYCQQYYDWPPFTFGGGTKVEIK
In test [3], B13 showed a Kd of 0.32 nM.

B14: Anti-SIRP-α antibody 135, light chain wt, heavy chain Mut_V34M (antibody, V domains shown)
VH: EVQLVESGGGVVQPGGSLRLSCAASGFSFSIYAMSWVRQAPGKGLEWVSTIGADDTYYADSVKGRFTISRDNSKNTLYLQMNSLRAEDTAVYYCAKDSTVGWSGDFFDYWGQGTLVTVSS
VL: EIVLTQSPATLSVSPGERVTFSCRASQNVRSDIAWYQQKPGQAPRLLIYAASSRDTGIPDRFSGSGSGTDFTLTISSLQSEDFGVYYCQQYYDWPPFTFGGGTKVEIK
With B14, the Kd in test [3] worked out at 0.15 nM.

B15: Anti-SIRP-α antibody 135, light chain wt, heavy chain Mut (antibody, V domains shown)
VH: EVQLVESGGGVVQPGGSLRLSCAASGFSFSIYAVSWVRQAPGKGLEWVSTIGADDTYYADSVKGRFTISRDNSKNTLYLQMNSLRAEDTAVYYCAKDSTVGWSGDFFDYWGQGTLVTVSS
VL: EIVLTQSPATLSVSPGERVTFSCRASQNVRSDIAWYQQKPGQAPRLLIYAASSRDTGIPDRFSGSGSGTDFTLTISSLQSEDFGVYYCQQYYDWPPFTFGGGTKVEIK
In test [3], B15 registered a Kd of 0.18 nM.

B16: Anti-SIRP-α antibody 119, light chain wt, heavy chain Mut (antibody, V domains shown)
VH: EVQLLESGGGVVQPGGSLRLSCAASGFSFSNFAVTWVRQAPGKGLEWVSTIGSGDTYYADSVKGRFTISRDNSKNTLYLQMNSLRAEDTAVYYCAKDSTVSWSGDFFDYWGQGTLVTVSS
VL: EIVLTQSPATLSVSPGERATFSCRASQNVKNDLAWYQQRPGQAPRLLIYAARIRETGIPERFSGSGSGTEFTLTITSLQSEDFAVYYCQQYYDWPPFTFGGGTKVEIK
Regarding B16, in test [3], the Kd was 0.25 nM.

B17: Anti-SIRP-α antibody 135, light chain Mut, heavy chain wt (antibody, V domains shown)
VH: DVQLVESGGGVVRPGESLRLSCAASGFSFSIYAMSWVRQAPGEGLEWVSTIGADDTYYADSVKGRFTISRDNSKNTLYLQMNSLRAEDTAVYYCAKDSTVGWSGDFFDYWGLGTLVTVSS
VL: EIVLTQSPATLSVSPGERVTLSCRASQNVRSDIAWYQQKPGQAPRLLIYAASSRDTGIPARFSGSGSGTDFTLTISSLQSEDFGVYYCQQYYDWPPFTFGGGTKVEIK
B17 yielded a Kd in test [3] of 0.15 nM.

B18: Hum1/AB21_HC_Mutall (antibody, V domains shown)
VH: EVQLVESGGGVVQPGGSLRLSCAASGFTFSSNAMSWVRQAPGKGLEWVAGISAGGSDTYYPASVKGRFTISRDNSKNTLYLQMNSLRAEDTAVYYCARETWNHLFDYWGQGTLVTVSS
VL: SYELTQPPSVSVSPGQTARITCSGGSYSSYYYAWYQQKPGQAPVTLIYSDDKRPSNIPERFSGSSSGTTVTLTISGVQAEDEADYYCGGYDQSSYTNPFGGGTKLTVL
For the molecule B18, the Kd was determined as 3.7 nM in test [1], 7.9 nM in test [2] and 0.0053 nM in test [3].

B19: Hum8/AB21_HC_Mutall (antibody, V domains shown)
VH: EVQLVESGGGVVQPGGSLRLSCAASGFTFSSNAMSWVRQAPGKGLEWVAGISAGGSDTYYPASVKGRFTISRDNSKNTLYLQMNSLRAEDTAVYYCARETWNHLFDYWGQGTLVTVSS
VL: SYELTQPPSVSVSPGQTARITCSGGAYSSYYYAWYQQKPGQAPVLVIYSDSKRPSGIPERFSGSSSGTTVTLTISGVQAEDEADYYCGGYDQSSYTNPFGGGTKLTVL
Consider B19, for which the Kd amounted to 28 nM in test [4], 0.02 nM in test [3] and 71 nM in test [5].

As usually defined, the Kd is a measure of binding affinity in units of concentration.
